Measurements: the supplement of paper PMC9170038

Tested on: K4 kissing-loop RNA reporter
Test: apparent KD of K4 kissing-loop reporter; higher = weaker reporter binding
Conditions: Eterna round: R107
Protocol: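 RNA-MaP round R107: designed RNA switches with theophylline, tryptophan, arginine or FMN aptamers are transcribed on-chip within common flanks. They are titrated with a labelled K4 kissing-loop RNA reporter in RNA-MaP buffer (100 mM Tris pH 7.5, 80 mM KCl, 4 mM MgCl2), without ligand or with the indicated ligand. Median apparent KD per design.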

[1] = input ligand: theophylline 20 uM
[2] = input ligand: tryptophan 2.4 mM
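Also: bound reporter read as fluorescence of individual clusters on recovered sequencing chips by microscopy, with normalized cluster intensities fitted with a binding model.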

Sequence | apparent KD of K4 kissing-loop reporter (input ligand: FMN 200 uM) | apparent KD of K4 kissing-loop reporter (input ligand: arginine 13.2 mM) | apparent KD of K4 kissing-loop reporter (input ligand: none) | apparent KD of K4 kissing-loop reporter [1] | apparent KD of K4 kissing-loop reporter [2]
GCUCGGGAGUGAUGUUCCAAGUGGUGUUAACGAGGACCGGUACGGCCGCCACUCGAUACGGCCGGGCCGUAGGAUAAACUGGAGC [Same State - Tryptophan A (Freestyle 13)] | 193 nM | 123 nM | 154 nM | 174 nM | 152 nM
GGAGAGAACUGAAGGAGCGCCAAGAGAGAAGGAAAUAUAGUGAUGUUAUAUAAGAGAGAGAGGCAGGUAGGUCGCAGAGGGAGGA [#03 K4 Arginine B Exclusion] | 185 nM | 162 nM | 127 nM | 175 nM | 112 nM
GGAUAGGACAGAGGAUAUCCUGAGGCAAGAAACUUGUCUCAUAAAGGAUGAAUCCUAGUGAUGUUAGGAGAAGGCUGUCCUAUCG [FmnBX 15 - #SwitchBubble #StaticStem #Palindromic] | 172 nM | 58.8 nM | 88 nM | 104 nM | 71.3 nM
GGAUAGGACAGAGGAUAUGGUAGUGAUGUUACCACGAGACAAAGUCUCGAAAAGCUACAAAGUAGCCCAGAAGGCUGUCCUAUCG [FmnBX 25 #SwitchBubble #StaticStem #Palindromic] | 402 nM | 116 nM | 130 nM | 114 nM | 127 nM
GGAUAGGACAUAGGAUAUGGGCUAGGCAAGAAUAACUUGUCUAGCAAAUCCAUGAGGAGUGAUGUUCCAGAAGGGUGUCCUAUCG [FmnBX 1 U11+G75] | 194 nM | 105 nM | 99.4 nM | 111 nM | 89.9 nM
GGAUAGGAUAGAGGAUAUGGUAGUGAUGUUACCAAACUGGUUAAACAUGUCAGAAAACUGGCAUGACCAGAAGGUUGUCCUAUCG [FmnBX 27 U9+U75] | 80.5 nM | 57.1 nM | 70.5 nM | 66.9 nM | 61.5 nM
GGAUCCACCAGUGAUGUUGGAGAAAACUCCAAGGAUAUGACGAAAGUCAGAAGGUGGUAGACUGGACAAAGUCCGGUAGGAUCCA [FmnA10 A78] | 992 nM | 58.5 nM | 360 nM | 228 nM | 193 nM
GGAUUGCCAGUGAUGUUGGCAUAAUCUGAAGGAGCGCGUGAAAACGCAGGUAGGUCGCAGAACCUUGCCAACUGAUCGAAAGAUC [Ex Arginine A K4 30] | 145 nM | 165 nM | 155 nM | 185 nM | 150 nM
GGCAGUGAUGUUGCCUAAGCAACGCAUGCGGAGGAUAUUCGUUCGGGAAGAAGGCCGCAGCGUUCUCUCGAGUGAUGUUCGAGUA [Same State FMN A GF 21] | 161 nM | 176 nM | 176 nM | 171 nM | 166 nM
GGCAUAUGAAAUCGCCUAGAGAGAAAGGAUACCAGCACCCGGCGGUGCCCUUGGCAGCCUAGCCCAGUGAUGUUGGGUCCUCUAA [Rasoonanxe] | 228 nM | 149 nM | 167 nM | 296 nM | 144 nM
GGCAUGCAUGGAAACAUGCAUGCCAUGCCUCGAGGACCGGUACGGCCGCCACUCGUUAAAAGAAAUGCCAGUGAUGUUGGCCGAA | 443 nM | 430 nM | 528 nM | 500 nM | 175 nM
GGCCGGAAGGCGAGCGCUCCCACUCCGGAAGGAGCGCCCGCAAGGGCAGGUAGGUCGCCGGAGUGAUGUUCCGGUGGAGGGCUCG [#2 Exclusion - Arginine A Attempt #20 (Inspired by Omei)] | 185 nM | 308 nM | 379 nM | 8.89 nM | 136 nM
GGGAAGUACGGAGGAUAUGCACUGAGGAGGAGAAUAUAGUGAUGUUAUAUAAGAGGAAGGAGAAGAGUAGAAGGCCGUGGAAAGG [SSFMNB.C] | 175 nM | 115 nM | 228 nM | 151 nM | 117 nM
GGGAGUAGUGCGGCCGCCACUGAGAAAGAAGAAGAAUAUAGUGAUGUUAUAUAGGAAGGGAAGAACAGGACCGGGCAUUAGAUUU [SSTRyptB.Y] | 240 nM | 306 nM | 380 nM | 311 nM | 222 nM
GGGAGUGAUGUUCCCACGUUGUCGGUCCUCCGAGGACCGGUACGGCCGCCACUCGCGACCCAGUGAUGUUGGGACUCACCGUACC [Exclusion Tryptophan A Gf 12] | 509 nM | 377 nM | 558 nM | 557 nM | 218 nM
GGGCCUCUGGCUGAUACCAGUGAUAAAGGGUAAGAGACAGGGAGUGAUGUUCCCUUUAGCCACCCUUGGCAGCAGUUUAAGUUUG [Exclusion Theophylline B GF 18] | 84.8 nM | 82.8 nM | 85.5 nM | 86.6 nM | 77.3 nM
GGGCCUCUGGCUGAUACCAGUGAUGCAGGGUCCGAGACAGGGAGUGAUGUUCCCUGCAGCCACCCUUGGCAGCAGUUUAAGUUUG [Exclusion Theophylline B GF 19] | 136 nM | 124 nM | 122 nM | 124 nM | 129 nM
GGGCGCGGCGCGGCCGCCACUGGGCCUGGGCGCGCGCCGAGUGAUGUUCGCCUGCGGCUGGGUCGUAGGACCGGGUGCCGGCUGG [BDazzled 1] | 422 nM | 202 nM | 311 nM | 376 nM | 188 nM
GGGUCAGUCUGAAGGAGCGGCCAGACAGAGCAGUGAUGUUGCUCCUAAUUUAAAAGUGUCGGCCAGGUAGGUCGCAGAUUGGCUC [Dienralais] | 154 nM | 127 nM | 161 nM | 152 nM | 165 nM
GGGUGGUAGGCGGCCGCCACUCUGAGCACCCACUGAGUGAUGUUCGUGGCGUAAGCCUGUUCAUAGAGGACCGGGUUUGUUGUUC [Exclusion Tryptophan B GF 16] | 507 nM | 252 nM | 514 nM | 470 nM | 376 nM
GGUAGCAUGGCGGCCGCCACUCUUCAUUAGUGAUGUUAAUGCCGAGUGGGCAAACUCCGCCAGGAGAGGACCGGGCCAUGCUACC | 82.6 nM | 75.1 nM | 80.8 nM | 62.7 nM | 244 nM

Sequence | apparent KD of K4 kissing-loop reporter (input ligand: FMN 200 uM) | apparent KD of K4 kissing-loop reporter (input ligand: arginine 13.2 mM) | apparent KD of K4 kissing-loop reporter (input ligand: none) | apparent KD of K4 kissing-loop reporter [1] | apparent KD of K4 kissing-loop reporter [2]
GGUAGCAUGGCGGCCGCCACUGCAAAGCAUAGCUACGGAAACGUAGCUACAGAGUGAUGUUCUGGCAGGACCGGGCCAUGCUACC | 675 nM | 487 nM | 692 nM | 683 nM | 330 nM
GGUAGCAUGGCGGCCGCCACUGUCUAGUGAUGUUAGACCCGACGUGGAUUCAAGACAGUCGGAAACAGGACCGGGCCAUGCUACC | 390 nM | 229 nM | 330 nM | 163 nM | 179 nM
GGUCCGGGCUCGGCCGCCACUCCCUCCUGCCGGAAGGUGGGAUACCGAGUGAUGUUCGGUUGGAGGAGGACCGGGAGCCCGGACC [#2 Exclusion - Tryptophan B Attempt #13 (HarryS)] | 132 nM | 106 nM | 123 nM | 161 nM | 129 nM
GGUGACUACCAGAGGUGAUGUAUAGUAUCGCGAGGACCGGUACGGCCGCCACUCGUGAAGAGAAAGGAGUGAUGUUCCGUAAUGG [Kazoo C8] | 396 nM | 315 nM | 323 nM | 627 nM | 160 nM
GGUGCUGUCUGUGCCGCCCUCCUCGUUCCUCGAGGACCGGUACGGCCGCCACUCGAGUGAUGUUUGGGUAGCGAUCCCUGCUAGC [Bdazzled - #16 Exc. Tryptophan A] | 792 nM | 719 nM | 1060 nM | 801 nM | 696 nM
GGUGUUGUUUGUGCUGUUUUCUUUGUUUCUCGAGGACCGGUACGGCCGCCACUCGAGUGAUGUUUGGGUAGUGAUGUUUGUUAGU [Bdazzled #1 Exc. TA] | 241 nM | 147 nM | 198 nM | 180 nM | 239 nM
GGUUUAUAGGAGGAUACCAGUACGGAUAAAGUACGUUAAUAGUAGAGUGAUGUUCUAAAGUACCCUUGGCAGCUUAGAGUAAGUU [ExTheophylB.K] | 85.8 nM | 147 nM | 105 nM | 117 nM | 63.4 nM
GUAACCUUGCUCGAGUGAUGUUCGAGCGAAGGAGCGCGAGAAAUCGCAGGUAGGUCGCGCUCGAAAUUUGAGCGAACAAUUAUUA [Arg A Ex t2] | 128 nM | 125 nM | 138 nM | 123 nM | 113 nM
GUAGACGUACCUUCAGUGAUGUUGAAGGAUACCAGAUGUUACCACAUCCCUUGGCAGCCUUGGGAUAACAGUGAGUCGGAAUAUG [Uslediti] | 176 nM | 136 nM | 158 nM | 166 nM | 142 nM
GUAGGAUGGUGCGAUACCAGACCUGCAGUGAUGUUGCGCCAUAGUGAGUGAUGUUCACCGGUCCCUUGGCAGCGCGUCCAUAAAG [Same State Theophylline B GF 17] | 1060 nM | 719 nM | 1250 nM | 1160 nM | 882 nM
GUAUAAGUGGGCGAUACCAGCUGUCGGUAGUGAUGUUAUUCAGCAGUCAGGAAGUUCGCUAGCCCUUGGCAGCGCCAGUGGUGAC [theeternabot_exclusion_KL_Theo_B_19] | 383 nM | 324 nM | 416 nM | 351 nM | 341 nM
GUAUCAGUGAUGUUGGUAGGCGAGCGGGAUACCAGCCAAGACUCAGGCCCUUGGCAGCCCACAUAUCCCACGUAGAUAGUAGCUC [Same State - Theophylline A (Freestyle 15)] | 155 nM | 95.6 nM | 149 nM | 139 nM | 133 nM
GUAUCGCUAGGAGGAUAUUUCAAUCUGACUCUUUGAGUUAGUACGGAGUGAUGUUCCGAUUUACGGAAAGAAGGCCUAGUGAUAC [FMN B 11] | 142 nM | 312 nM | 378 nM | 264 nM | 299 nM
GUAUGUGAUGGAAACAUCGCAUACACUGAUACCAGUAUCGAUAGAUACCCUUGGCAGCAGAAAACUGCAAUUGGAGUGAUGUUCC [Ex Theophylline A K4 1] | 213 nM | 175 nM | 229 nM | 216 nM | 201 nM
GUCAUCAGAUCGCAAGAUCUGAUAGCCGAUACCAGCGCGAAGGUGCGCCCUUGGCAGCGGCACCGAGUGAUGUUCGGUCAGACGA [#2 Same State - Theophylline A Attempt #5 (HarryS)] | 526 nM | 392 nM | 514 nM | 330 nM | 427 nM
GUCCCGAGUGAUGUUCGGGUCGUUCGGGAAGGAGCGCCCGCAAGGGCAGGUAGGUCGCCCGGAUCCCUCAGGUAACUGAGGGACC [#2 Same State - Arginine A Attempt #26 (HarryS)] | 632 nM | 428 nM | 491 nM | 467 nM | 465 nM
GUCUCAAAAGAGGCAAGCACUCACGAGGACAAGGAUAUCAUAUCAAUGAGAAGGUGUCCUCGUCCUUAGUGAUGUUAAGGAGUGC [Omei KL FMN A SS E v3] | 297 nM | 298 nM | 357 nM | 196 nM | 330 nM
GUCUCAAAAGAGGCAAGCACUCACGAGGACAAGGAUAUCAUCUCAAUGAGAAGGUGUCCUCGUCCCUAGUGAUGUUAGGGAGUGC [Omei KL FMN A SS E v2] | 211 nM | 334 nM | 368 nM | 478 nM | 468 nM
GUCUCGAGUGAUGUUCGGGUCGAUUGGGAAGGAGCGCCCGGAAGGGCAGGUAGGUCGCCCGGACCGCGCGGGCAACCGCGCGGCC [#2 Same State - Arginine A Attempt #11 (HarryS)] | 186 nM | 108 nM | 147 nM | 141 nM | 163 nM
GUGAAGGAGAUGCAGUGAUGUUGCAGAGACUAGGAUAUCAGGAAACUGAGAAGGAGUCAAUUCCUUCAUUUAGACUGCAACAUAA [KL-SSFMN-A12] | 204 nM | 139 nM | 138 nM | 296 nM | 191 nM
GUGAAUGGCUGAGCAGCCGUGGUACGAGAUACCAGUGAUUUCGAUCACCCUUGGCAGCUCGGCGUGAGUGAUGUUCACGCUACAC [Theo A SS t12a] | 273 nM | 278 nM | 300 nM | 330 nM | 270 nM
